The target in data set [1] is T1, DMP1 M11 (K319E) K319E (Mus musculus) (UniProt Q8CE22).
T1 sequence: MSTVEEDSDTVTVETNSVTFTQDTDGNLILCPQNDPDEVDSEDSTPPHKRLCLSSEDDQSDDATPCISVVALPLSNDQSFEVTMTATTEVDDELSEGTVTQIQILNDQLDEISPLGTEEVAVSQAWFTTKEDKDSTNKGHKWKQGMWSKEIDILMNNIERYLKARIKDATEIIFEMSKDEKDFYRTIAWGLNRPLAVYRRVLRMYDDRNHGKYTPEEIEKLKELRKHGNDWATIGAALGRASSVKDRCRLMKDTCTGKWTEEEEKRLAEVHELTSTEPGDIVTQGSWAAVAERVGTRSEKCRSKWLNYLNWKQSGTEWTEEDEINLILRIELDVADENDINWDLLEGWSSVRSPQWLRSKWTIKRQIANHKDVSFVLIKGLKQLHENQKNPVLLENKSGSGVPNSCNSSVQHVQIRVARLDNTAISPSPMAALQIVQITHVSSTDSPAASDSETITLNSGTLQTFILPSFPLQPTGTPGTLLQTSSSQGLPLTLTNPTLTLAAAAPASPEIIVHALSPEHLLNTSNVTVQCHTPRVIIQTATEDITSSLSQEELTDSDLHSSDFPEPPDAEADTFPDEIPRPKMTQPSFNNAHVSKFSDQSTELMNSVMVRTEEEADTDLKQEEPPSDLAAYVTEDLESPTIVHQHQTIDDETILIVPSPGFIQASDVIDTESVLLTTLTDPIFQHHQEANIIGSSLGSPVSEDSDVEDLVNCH
In words: EMSA. To be noted: very faint band. On the technique in general: In EMSA bound probe runs differently from free probe, usually more slowly.

Data set [2] deals with T2, DMP1 expressed in 293T cells (Mus musculus) (UniProt Q8CE22).
T2 sequence: T1 sequence with E320K
In words: cell_activity. As to conditions: 8x BS2 luciferase reporter. For orientation: In a reporter assay the amount or activity of a reporter protein is the signal.

Data set [3] has as its target T3, DMP1 expressed in NIH-3T3 cells (Mus musculus) (UniProt Q8CE22).
T3 sequence: T1 sequence with E320K
In words: cell_activity. As to conditions: BS2 luciferase reporter.

Data set [4] addresses T4, DMP1 M11 (K319E) expressed in NIH-3T3 cells K319E (Mus musculus) (UniProt Q8CE22).
T4 sequence: T1 sequence
Briefly: cell_activity. To be noted: BS2 luciferase reporter.

Data set [5] concerns the target T5, cyclin D3 (mouse, UniProt P30282 1-292).
T5 construct: 35S-labelled in vitro translation product in the pull-down; baculovirus product in Sf9 cells
T5 sequence (looked up): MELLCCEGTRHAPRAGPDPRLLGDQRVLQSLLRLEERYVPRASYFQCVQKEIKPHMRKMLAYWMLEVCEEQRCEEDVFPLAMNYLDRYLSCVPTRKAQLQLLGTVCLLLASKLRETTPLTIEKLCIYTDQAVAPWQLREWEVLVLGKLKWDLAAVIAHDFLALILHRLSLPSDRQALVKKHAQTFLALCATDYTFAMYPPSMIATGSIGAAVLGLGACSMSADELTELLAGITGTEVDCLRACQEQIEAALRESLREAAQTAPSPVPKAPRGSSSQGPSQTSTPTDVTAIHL
Briefly: coinfected Sf9 cells, coprecipitation.

The target in data set [6] is T6, cyclin D2 (mouse, UniProt P30280 1-289).
T6 construct: 35S-labelled in vitro translation product in the pull-down; baculovirus product in Sf9 cells
Briefly: coinfected Sf9 cells, coprecipitation.

Data set [7] concerns the target T7, cyclin D2-DMP1 complex (mouse, UniProt P30280 1-289).
T7 construct: Complex formed in coinfected Sf9 cells
In words: coinfected Sf9 cells, immunoprecipitation with antiserum to DMP1.

Data set [8] deals with T8, cyclin D1 (mouse, UniProt P25322 1-295).
T8 construct: 35S-labelled in vitro translation product in the pull-down; baculovirus product in Sf9 cells
Briefly: GST pull-down of 35S-labelled in vitro translated cyclin. The method, then: (§1) Because DMP1 interacted with cyclin D2 in yeast, the ability of a glutathione S-transferase (GST)-DMP1 fusion protein to bind D-type cyclins in vitro is examined. GST is fused to residues 176-761 of DMP1 (in lieu of GAL4 in the original cDNA clone), and the bacterially synthesized recombinant protein is incubated with [³⁵S]methionine-labeled D-type cyclins prepared by transcription and translation in vitro. As a positive control, GST-RB which can specifically bind D-type cyclins in this assay is used (15). Bound cyclins recovered on washed glutathione-Sepharose beads are analyzed by electrophoresis on denaturing gels. […] GST-DMP1 is less efficient than GST-RB in binding cyclins D2 and D3 (˜4-fold less binding), and under these conditions, an interaction with D1 is not detected (lanes 3, 7, 11). No labeled proteins bind to GST alone (lanes 4, 8, 12), and neither cyclin A nor cyclin E bind to GST-RB or to GST-DMP1. A cyclin D2 mutant disrupted in an amino-terminal Leu-X-Cys-X-Glu pentapeptide that is required for high efficiency GST-RB binding is not detectably compromised in its interaction with GST-DMP1 (negative data not shown); in agreement, DMP1 bears no homology to RB or to RB-related family members (p107 and p130).

The target of data set [9] is T5, cyclin D3. Briefly: GST pull-down of 35S-labelled in vitro translated cyclin on glutathione-Sepharose, gel autoradiography. As to the method: as §1
Data set [10] addresses T6, cyclin D2. The data set is described as above. As to the method:
as §1

For data set [11], the target named is T8, cyclin D1. Briefly: anti-Flag immunoprecipitation from Sf9 lysates, Western blot for cyclin D1. The text has this: The series of DMP1 deletion mutants and the K319E point mutant were then used to determine the cyclin D binding domain of DMP1. Expression vectors encoding murine wild-type DMP1, the corresponding deletion mutations, or K319E (i. e., wildtype DMP1 and M1-M11, defined in FIG. 10, Table 1) were cotransfected with an expression vector encoding cyclin D1 into SF9 cells. Wildtype DMP1 and M1-M11 were expressed containing Flag-tags. SF9 lysates were immunoprecipitated with an antibody raised against the Flag-tag. The immunoprecipitates were resolved individually by gel electrophoresis, and then Western blotted with an antibody raised against cyclin D1. […] Therefore, the cyclin D1 binding domain is missing in the M9 deletion mutant. […] Therefore, deletion of the N-terminal domain of DMP1 (i.e., amino acids 1-223) abrogates its ability to interact with D-type cyclins, and thus, the region of DMP1 from residues 1-223 contains a specific cyclin D interaction motif required for D-type cyclin-DMP1 association.
For orientation: A western blot detects proteins with antibodies after separation by electrophoresis.

Data set [12] deals with D-type cyclins. In words: coexpression in Sf9 cells, coprecipitation (FIG. 3).

Residue numbers refer to the chain shown, from its start.

T8 sequence (P25322 whole entry): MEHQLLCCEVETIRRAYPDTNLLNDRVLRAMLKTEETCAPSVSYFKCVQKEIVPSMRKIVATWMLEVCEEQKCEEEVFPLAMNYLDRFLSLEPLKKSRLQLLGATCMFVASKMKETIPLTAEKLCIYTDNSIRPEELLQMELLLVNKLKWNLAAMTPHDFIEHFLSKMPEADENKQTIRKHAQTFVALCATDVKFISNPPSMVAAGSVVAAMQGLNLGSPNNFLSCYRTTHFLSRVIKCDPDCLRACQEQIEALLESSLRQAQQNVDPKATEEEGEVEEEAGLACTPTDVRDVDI
T6 sequence (P30280 whole entry): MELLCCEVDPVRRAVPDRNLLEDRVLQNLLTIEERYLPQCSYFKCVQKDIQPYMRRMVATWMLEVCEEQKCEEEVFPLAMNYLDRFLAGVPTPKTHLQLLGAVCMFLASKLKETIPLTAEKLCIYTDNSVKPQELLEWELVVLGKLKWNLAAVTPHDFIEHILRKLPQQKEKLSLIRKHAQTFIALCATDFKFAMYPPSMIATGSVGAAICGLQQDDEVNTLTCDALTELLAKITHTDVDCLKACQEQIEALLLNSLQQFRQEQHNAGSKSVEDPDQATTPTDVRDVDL
T7 sequence (P30280 whole entry, one chain of several): as the sequence (P30280 whole entry) above

For the molecule “AATTGACCCGTATGTAGGTACGC (double strand) [BS2]”, the binding signal (% of wild type) in [1] turned out to be 2. Moreover, the activity (fold activation) is 20 in data set [2], 8.4 in data set [3] and 1.1 in data set [4].
“RB (retinoblastoma protein) coexpressed in Sf9 cells”: the binding ratio of cyclin to RB in data set [5] and in data set [6] was 1 ratio (1:1) in each case.

B1: catalytically inactive CDK4 mutant (enzyme, mouse, UniProt P30285 1-303, looked up)
chain: MAATRYEPVAEIGVGAYGTVYKARDPHSGHFVALMSVRVPNGGAAGGGLPVSTVREVALLRRLEAFEHPNVVRLMDVCATSRTDRDIKVTLVFEHIDQDLRTYLDKAPPPGLPVETIKDLMRQFLSGLDFLHANCIVHRDLKPENILVTSNGTVKLADFGLARIYSYQMALTPVVVTLWYRAPEVLLQSTYATPVDMWSVGCIFAEMFRRKPLFCGNSEADQLGKIFDLIGLPPEDDWPREVSLPRGAFAPRGPRPVQSVVPEMEESGAQLLLEMLTFNPHKRISAFRALQHSYLHKEESDAE
notes: also called mutant CDK4
B1: in [7], the binding result is “no binding”.

B2: GST-DMP1 fusion protein (GST fused to residues 176-761 of DMP1) (other)
chain: GIKDATEIIFEMSKDERKDFYRTIAWGLNRPLFAVYRRVLRMYDDRNHVGKYTPEEIEKLKELRIKHGNDWATIGAALGRSASSVKDRCRLMKDTCNTGKWTEEEEKRLAEVVHELTSTEPGDIVTQGVSWAAVAERVGTRSEKQCRSKWLNYLNWKQSGGTEWTKEDEINLILRIAELDVADENDINWDLLAEGWSSVRSPQWLRSKWWTIKRQIANHKDVSFPVLIKGLKQLHENQKNNPVLLENKSGSGVPNSNCNSSVQHVQIRVARLEDNTAISPSPMAALQIPVQITHVSSTDSPAASADSETITLNSGTLQTFEILPSFPLQPTGTPGTYLLQTSSSQGLPLTLTTNPTLTLAAAAPASPEQIIVHALSPEHLLNTSDNVTVQCHTPRVIIQTVATEDITSSLSQEELTVDSDLHSSDFPEPPDALEADTFPDEIPRPKMTIQPSFNNAHVSKFSDQNSTELMNSVMVRTEEEIADTDLKQEEPPSDLASAYVTEDLESPTIVHQVHQTIDDETILIVPSPHGFIQASDVIDTESVLPLTTLTDPIFQHHQEASNIIGSSLGSPVSEDSKDVEDLVNCH
notes: Made in bacteria, held on glutathione-Sepharose beads; not shown: glutathione S-transferase encoded by pGEX-3X (Pharmacia)
For B2, in data set [8], the binding result is “no binding”. In addition, the “fold less binding than GST-RB” value in data set [9] and in data set [10] was ~4 fold less binding than GST-RB throughout.

B3: Flag-tagged DMP1 deletion mutant M9 (amino acids 234-761) (other)
chain: KLKELRIKHGNDWATIGAALGRSASSVKDRCRLMKDTCNTGKWTEEEEKRLAEVVHELTSTEPGDIVTQGVSWAAVAERVGTRSEKQCRSKWLNYLNWKQSGGTEWTKEDEINLILRIAELDVADENDINWDLLAEGWSSVRSPQWLRSKWWTIKRQIANHKDVSFPVLIKGLKQLHENQKNNPVLLENKSGSGVPNSNCNSSVQHVQIRVARLEDNTAISPSPMAALQIPVQITHVSSTDSPAASADSETITLNSGTLQTFEILPSFPLQPTGTPGTYLLQTSSSQGLPLTLTTNPTLTLAAAAPASPEQIIVHALSPEHLLNTSDNVTVQCHTPRVIIQTVATEDITSSLSQEELTVDSDLHSSDFPEPPDALEADTFPDEIPRPKMTIQPSFNNAHVSKFSDQNSTELMNSVMVRTEEEIADTDLKQEEPPSDLASAYVTEDLESPTIVHQVHQTIDDETILIVPSPHGFIQASDVIDTESVLPLTTLTDPIFQHHQEASNIIGSSLGSPVSEDSKDVEDLVNCH
notes: not shown: Flag-tag
In the case of B3, the binding result in data set [11] is given as “no binding”.

B4: DMP1 (cyclin D-binding myb-like protein), murine, full length (protein)
chain: MSTVEEDSDTVTVETVNSVTFTQDTDGNLILHCPQNDPDEVDSEDSTEPPHKRLCLSSEDDQSIDDATPCISVVALPLSENDQSFEVTMTATTEVADDELSEGTVTQIQILQNDQLDEISPLGTEEVSAVSQAWFTTKEDKDSLTNKGHKWKQGMWSKEEIDILMNNIERYLKARGIKDATEIIFEMSKDERKDFYRTIAWGLNRPLFAVYRRVLRMYDDRNHVGKYTPEEIEKLKELRIKHGNDWATIGAALGRSASSVKDRCRLMKDTCNTGKWTEEEEKRLAEVVHELTSTEPGDIVTQGVSWAAVAERVGTRSEKQCRSKWLNYLNWKQSGGTEWTKEDEINLILRIAELDVADENDINWDLLAEGWSSVRSPQWLRSKWWTIKRQIANHKDVSFPVLIKGLKQLHENQKNNPVLLENKSGSGVPNSNCNSSVQHVQIRVARLEDNTAISPSPMAALQIPVQITHVSSTDSPAASADSETITLNSGTLQTFEILPSFPLQPTGTPGTYLLQTSSSQGLPLTLTTNPTLTLAAAAPASPEQIIVHALSPEHLLNTSDNVTVQCHTPRVIIQTVATEDITSSLSQEELTVDSDLHSSDFPEPPDALEADTFPDEIPRPKMTIQPSFNNAHVSKFSDQNSTELMNSVMVRTEEEIADTDLKQEEPPSDLASAYVTEDLESPTIVHQVHQTIDDETILIVPSPHGFIQASDVIDTESVLPLTTLTDPIFQHHQEASNIIGSSLGSPVSEDSKDVEDLVNCH
modifications: multiple phosphorylated forms when made in Sf9 cells (sites not given)
In data set [12], B4 had a percent of DMP1 molecules in stable complexes with D-type cyclins of under 15%.

The values are drawn from patent US20030028002A1, “Cyclin D binding factor, and uses thereof” (published 2003).
